Source: patent US20260263521A1, “ANTI-CD200R1 ANTIBODY AND USE THEREOF” (AIMED BIO INC., priority 2023, published 2026)
Where a chain is given by its changes, count along the chain named.

B1: P001009v2: P001009 variant, LC S52 and LC D93 substituted with K and R; VH SEQ ID NO: 79 (antibody, V domains shown)
VH: EVQLLESGGGLVQPGGSLRLSCAASGFTFSSYDMSWVRQAPGKGLEWVSWISHGGGSIYYADSVKGRFTISRDNSKNTLYLQMNSLRAEDTAVYYCARDAPAYSAPLFDYWGQGTLVTVSS
VL: QSVLTQPPSASGTPGQRVTISCSGSSSNIGNNAVNWYQQLPGTAPKLLIYYDKNRPSGVPDRFSGSKSGTSASLAISGLRSEDEADYYCAAWDRSLSGYVFGGGTKLTVL
B2: P001009v4: P001009 variant, LC N31 substituted with K; VH SEQ ID NO: 79 (antibody, V domains shown)
VH: B1 VH
VL: B1 VL with N32K, K53S, R94D

What was measured:
human CD200R1 [1] = target: T1, human CD200R1 (Homo sapiens, UniProt Q8TD46); assay: SPR binding kinetics, human CD200R1; conditions: hCD200R1-his captured on anti-His CM5 chip, 1:1 Langmuir fit
T1 sequence (Q8TD46 25-348): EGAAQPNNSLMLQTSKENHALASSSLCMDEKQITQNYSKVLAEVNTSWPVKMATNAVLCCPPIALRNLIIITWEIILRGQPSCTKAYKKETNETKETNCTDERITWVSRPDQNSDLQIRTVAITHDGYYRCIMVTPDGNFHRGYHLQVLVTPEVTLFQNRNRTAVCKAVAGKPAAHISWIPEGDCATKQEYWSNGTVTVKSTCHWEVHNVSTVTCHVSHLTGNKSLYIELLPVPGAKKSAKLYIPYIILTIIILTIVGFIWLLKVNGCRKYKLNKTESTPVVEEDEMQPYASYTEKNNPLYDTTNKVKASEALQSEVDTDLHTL
Procedure: (§1) The CD200R1-specific binding ability of the antibodies (P001009 wt, P001009 v1, P001009 v2, P001009 v3, P001009 v4) selected in Example 14 was analyzed using surface plasma resonance (SPR). For the experiment, 30 μg/mL of an anti-histidine antibody was conjugated to a CM5 biacore chip via an amine bond while allowing to flow at 10 μl/min (10,000 RU). Then, 0.25 μg/mL of human or cynomolgus CD200R1 with dual His-tags was captured onto the completed chip for 60 seconds, and the binding ability of each antibody was analyzed. All experiments were performed by association of antibodies for 120 seconds and dissociation of antibodies for 600 seconds. The resulting graphs were fitted using a 1:1 Langmuir binding kinetic model (FIG. 16), and the kinetics of each antibody were calculated.

human CD200R1 [2] = target: T1, human CD200R1; assay: ELISA binding to human CD200R1; conditions: ELISA, Example 14
Procedure: 96-well plates were coated with human CD200R1 (R&D systems, 3414-CD) and mouse CD200R1 protein (R&D systems, 2554-CD) at a concentration of 2 μg/mL at 4° C. for 16 hours and then were blocked with 3% skim milk. The result was treated with the antibodies at concentrations of 300 nM, 60 nM, 12 nM, 2.4 nM, 0.48 nM, 0.096 nM, and 0.0192 nM, and reacted at room temperature for 2 hours.
The result was washed with PBST and distilled water, the samples were bound with a goat-derived HRP-conjugated anti-human antibody (Invitrogen, 31482, Goat anti-Human IgG F(ab′)2 Secondary Antibody, HRP) for 1 hour at room temperature, and then washed again with PBST and distilled water. Color was developed with a TMB substrate solution (Thermo Scientific, 34029, 1-Step™ TMB-ELISA Ultra Substrate Solution). The color reaction was stopped with stop solution (Invitrogen, SS04, ELISA Stop Solution). The absorbance was measured at an optical density of 450 nm.

cynomolgus CD200R1 = assay: SPR binding kinetics, cynomolgus CD200R1; conditions: cynomolgus CD200R1-his captured on anti-His CM5 chip, 1:1 Langmuir fit
Procedure: as §1

monkey CD200R1 = assay: ELISA binding to monkey CD200R1; conditions: Example 14
Excerpt: Therefore, the LC D51 and LC D92 sequences were not substituted during the optimization process. However, since LC N30 and LC N31 can play an important role in the specific binding of antibodies as paratopes, the sequences were substituted and optimized. Through rational design, LC S52 and LC S94 were substituted with K and R, respectively, to derive P001009v1, and LC S52 and LC D93 were substituted with K and R, respectively, to derive P001009v2. Further, P001009v3, in which LC N30 was substituted with S, and P001009v4, in which LC N31 was substituted with K, were derived and produced, and the binding ability to human, mouse, and monkey CD200R1 was analyzed by ELISA (FIG. 15). […] Both […] and variants thereof had very weak binding ability to mouse CD200R1 at concentrations up to 300 nM.

Row | Molecule | Ka (human CD200R1 [1]) [M⁻¹ s⁻¹] | binding ability to human CD200R1 compared to parent (human CD200R1 [2]) | Ka (cynomolgus CD200R1) [M⁻¹ s⁻¹] | binding ability to monkey CD200R1 compared to parent (monkey CD200R1)
1 | B1 | 7.52e+06 | reduced | 2.82e+06 | significantly improved
2 | B2 | 6.74e+06 | reduced | 3.71e+06 | improved
